Experimental data: publication PMC2568893, “Role of αBI5 and αBT162 residues in subunit interaction during oligomerization of αB-crystallin” (Molecular Vision, 2008)
Changes are numbered by the printed parent chain. Names and notes keep the numbering of the source. Each block holds one binder with its values, some of them ahead of it.

Assays:
[1] = molecular target: the molecule itself; assay: SEC-MALS; TSK G5000PWXL column, 100 µg protein, 50 mM phosphate, 150 mM NaCl, 0.02% sodium azide, pH 7.2, with the reducing agent TCEP; without it both Cys mutants formed larger oligomers
[2] = molecular target: αBT162C mutant of human αB-crystallin (human) (UniProt P02511); assay: FRET or BRET; amine-labelled proteins: Alexa Fluor 350 TFP ester (donor) and Alexa Fluor 488 TFP ester (acceptor); 50 µg of each labelled protein mixed at 37 °C; subunit exchange rate from Ft/F0

rate of subunit exchange [2]: 0.000655 s⁻¹
subunit interaction rate [2]: 6.5e-05 s⁻¹
B1: αBI5C mutant of human αB-crystallin (natural protein, UniProt P02511 1-175, looked up)
chain: MDIACHHPWIRRPFFPFHSPSRLFDQFFGEHLLESDLFPTSTSLSPFYLRPPSFLRAPSWFDTGLSEMRLEKDRFSVNLDVKHFSPEELKVKVLGDVIEVHGKHEERQDEHGFISREFHRKYRIPADVDPLTITSSLSSDGVLTVNGPRKQVSGPERTIPITREEKPAVTAAPKK
modifications: FRET assays only: Alexa Fluor 488 or Alexa Fluor 555 C5-maleimide on the cysteine (thiol-labelled), or Alexa Fluor 350 carboxylic acid TFP ester on amines (amine-labelled, donor); unlabelled in the other experiments
notes: human αB-crystallin (HspB5), 175 amino acids, with I5C; cDNA in pET-23d(+); Homo-oligomer, on average 35 subunits when reduced; also called αB5C
stoichiometry N [1]: 35 subunits

B2: αBT162C mutant of human αB-crystallin (natural protein, UniProt P02511 1-175, looked up)
chain: B1 chain with C5I, T162C
modifications: FRET assays only: Alexa Fluor 488 or Alexa Fluor 555 C5-maleimide on the cysteine (thiol-labelled), or Alexa Fluor 488 carboxylic acid TFP ester on amines (amine-labelled, acceptor); unlabelled in the other experiments
notes: human αB-crystallin (HspB5), 175 amino acids, with T162C; cDNA in pET-23d(+); Homo-oligomer, on average 35 subunits when reduced; also called αB162C
stoichiometry N [1]: 35 subunits
